Publication PMC10825186, “A universal metabolite repair enzyme removes a strong inhibitor of the TCA cycle” (Nature Communications, 2024)

Columns and labels:
[1] = biological target: T1, bovine succinate dehydrogenase (SDH) (Bos taurus, UniProt P31039); experiment: DCIP reduction at […] nm; format: biochemical; conditions: 2 mM malate, 0.1 mM decylubiquinone, GOT and glutamate, pH 7.1, 22 °C; product enol-OAA
T1 construct: gene SDHA; native complex II, dodecyl-maltoside-solubilized and enriched from bovine heart submitochondrial particles; with Succinate dehydrogenase [ubiquinone] iron-sulfur subunit, mitochondrial; Succinate dehydrogenase cytochrome b560 subunit, mitochondrial; Succinate dehydrogenase [ubiquinone] cytochrome b small subunit, mitochondrial
T1 sequence (P31039 44-665): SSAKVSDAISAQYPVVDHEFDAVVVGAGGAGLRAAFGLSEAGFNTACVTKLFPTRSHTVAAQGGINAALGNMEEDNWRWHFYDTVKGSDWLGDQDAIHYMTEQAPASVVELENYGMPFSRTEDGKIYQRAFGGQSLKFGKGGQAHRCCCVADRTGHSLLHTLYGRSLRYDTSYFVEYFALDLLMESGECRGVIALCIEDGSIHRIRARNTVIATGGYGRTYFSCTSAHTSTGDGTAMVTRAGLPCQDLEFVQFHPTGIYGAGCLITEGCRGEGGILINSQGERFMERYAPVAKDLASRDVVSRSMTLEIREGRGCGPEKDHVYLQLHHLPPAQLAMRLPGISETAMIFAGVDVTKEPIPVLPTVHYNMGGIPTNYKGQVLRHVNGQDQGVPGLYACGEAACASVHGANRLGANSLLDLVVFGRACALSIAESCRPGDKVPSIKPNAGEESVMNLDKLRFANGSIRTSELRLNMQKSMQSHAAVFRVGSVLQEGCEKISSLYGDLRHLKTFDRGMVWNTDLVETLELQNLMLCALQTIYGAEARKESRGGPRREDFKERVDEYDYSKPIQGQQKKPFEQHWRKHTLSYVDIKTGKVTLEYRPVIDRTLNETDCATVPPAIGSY
T1 sequence (Q3T189 29-280 partner): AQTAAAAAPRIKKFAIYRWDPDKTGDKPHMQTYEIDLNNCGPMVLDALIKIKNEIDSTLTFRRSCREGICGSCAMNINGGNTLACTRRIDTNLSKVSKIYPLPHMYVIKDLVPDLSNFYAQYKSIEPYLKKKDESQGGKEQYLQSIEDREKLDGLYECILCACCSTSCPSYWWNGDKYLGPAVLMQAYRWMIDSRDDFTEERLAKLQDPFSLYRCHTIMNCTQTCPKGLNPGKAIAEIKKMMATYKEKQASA
T1 sequence (P35720 30-169 partner): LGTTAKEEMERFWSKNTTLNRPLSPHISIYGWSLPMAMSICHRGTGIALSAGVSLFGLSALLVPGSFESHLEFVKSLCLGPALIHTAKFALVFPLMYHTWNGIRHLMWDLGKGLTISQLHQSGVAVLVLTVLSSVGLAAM
T1 sequence (Q95123 56-158 partner): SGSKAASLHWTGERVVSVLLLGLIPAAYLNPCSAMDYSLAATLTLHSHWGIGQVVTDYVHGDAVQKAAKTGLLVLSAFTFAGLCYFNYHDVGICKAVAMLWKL

purified protein = substrate: O=C(O)C=C(O)C(=O)O; experiment: purified protein; conditions: pH 7.5, 22 °C, 10 mM potassium phosphate, 0.3 mM NADH, malate dehydrogenase, OAA added in dry acetone

| Molecule | DCIP reduction at 600 nm [1] | Km (purified protein) | Vmax (purified protein) | kcat (purified protein) | kcat/Km (purified protein) |
| --- | --- | --- | --- | --- | --- |
| O=C(O)C[C@H](O)C(=O)O [malate] | These results confirm that malate oxidation by SDH forms enol-OAA | – | – | – | – |
| Bt FAHD2A (Bos taurus) (protein) ATQLPVLPRSEVTFLAPVTRPDKVVCVGMNYADHCREQNVPVPKEPIIFSKFASAIVGPYDNIILPPESQEVDWEVELAVVIGKRGKYIKATDAMAHVAGFTVAHDVSARDWQMGRNGKQWLLGKTFDTFCPLGPALVTKDSVADPHNLKICCRVNGEVMQSSNTNQMVFKTEELITWVSQFVTLYPGDIILTGTPPGVGVFRKPPVFLKKGDEVQCEIEELGVIINKVV | – | 20.2 ± 1.4 µM | 53.5 µmol/min/mg | 32.7 s⁻¹ | 1.63e+06 M⁻¹ s⁻¹ |
| Ec YcgM (Escherichia coli K-12) (protein) MYQHHNWQGALLDYPVSKVVCVGSNYAKHIKEMGSAVPEEPVLFIKPETALCDLRQPLAIPSDFGSVHHEVELAVLIGATLRQATEEHVRKAIAGYGVALDLTLRDVQGKMKKAGQPWEKAKAFDNSCPLSGFIPAAEFTGDPQNTTLSLSVNGEQRQQGTTADMIHKIVPLIAYMSKFFTLKAGDVVLTGTPDGVGPLQSGDELTVTFDGHSLTTRVL | – | 26.9 ± 0.4 µM | 372 µmol/min/mg | 161 s⁻¹ | 5.95e+06 M⁻¹ s⁻¹ |
| Bs YisK (Bacillus subtilis subsp. subtilis str. 168) (protein) MKFATGELYNRMFVGLIIDDEKIMDLQKAEKKLFELETIPGSLIECIAEGDKFVAHARQLAEWAKKPNDELGSFMYSLSEVKLHAPIPKPSKNIICIGKNYRDHAIEMGSEADIPEHPMVFTKSPVTVTGHGDIVKSHEEVTSQLDYEGELAVVIGKSGTRISKEDAYDHVFGYTIVNDITARDLQKRHKQFFIGKSLDTTCPMGPVLVHKSSIQEPERLKVETRVNGELRQSGSASDMIFSIPELIETLSKGMTLEAGDIIATGTPSGVGKGFTPPKFLRSGDKIDITIDPIGTLSNQIG | – | 43.8 ± 8.1 µM | 402 µmol/min/mg | 237 s⁻¹ | 5.81e+06 M⁻¹ s⁻¹ |
| Hs FAHD1 (Homo sapiens) (protein) MGIMAASRPLSRFWEWGKNIVCVGRNYADHVREMRSAVLSEPVLFLKPSTAYAPEGSPILMPAYTRNLHHELELGVVMGKRCRAVPEAAAMDYVGGYALCLDMTARDVQDECKKKGLPWTLAKSFTASCPVSAFVPKEKIPDPHKLKLWLKVNGELRQEGETSSMIFSIPYIISYVSKIITLEEGDIILTGTPKGVGPVKENDEIEAGIHGLVSMTFKVEKPEY | – | 15.8 ± 5.9 µM | 69 µmol/min/mg | 31.1 s⁻¹ | 1.99e+06 M⁻¹ s⁻¹ |
| Hs FAHD2A (Homo sapiens) (protein) AAQLPVLPRSEVTFLAPVTRPDKVVCVGMNYVDHCKEQNVPVPKEPIIFSKFASSIVGPYDEVVLPPQSQEVDWEVELAVVIGKKGKHIKATDAMAHVAGFTVAHDVSARDWQMRRNGKQWLLGKTFDTFCPLGPALVTKDSVADPHNLKICCRVNGEVVQSGNTNQMVFKTEDLIAWVSQFVTFYPGDVILTGTPPGVGVFRKPPVFLKKGDEVQCEIEELGVIINKVV | – | 22.2 ± 3.6 µM | 22.2 µmol/min/mg | 13.6 s⁻¹ | 628000 M⁻¹ s⁻¹ |
| Hs FAHD2B (Homo sapiens) (protein) AAQLPVLPWSEVTFLAPVTWPDKVVCVGMNYVDHCKEQNVPVPKEPIIFSKFASSIVGPYDEVVLPPQSQEVDWEVELAVVIGKKGKHIKATDAMAHVAGFTVAHDVSARDWLTRRNGKQWLLGKTFDTFCPLGPALVTKDSVADPHNLKICCRVNGEVVQSSNTNQMVFKTEDLIAWVSQFVTFYPGDVILTGTPPGVGVFRKPPVFLKKGDEVQCEIEELGVIINKVV | – | 296 ± 12 µM | 112 µmol/min/mg | 68.7 s⁻¹ | 232000 M⁻¹ s⁻¹ |
| Sc FMP41 (Saccharomyces cerevisiae S288C) (protein) MSYNYLKAARKIICIGRNYAAHIKELNNSTPKQPFFFLKPTSSIVTPLSSSLVKTTRPANSTFNGLNEDGTNPGPIFIPRGVKVHHEIELALIVSKHLSNVTKMKPEEVYDSISGVALALDLTARNVQDEAKKKGLPWTISKGFDTFMPISAIVSREKFSSYKSNLQDIFRVKCSVNGQLRQDGGTNLMLHPLHKILQHISTMISLEPGDIILTGTPAGVGELKPGDRVHCELLQNNDNIVDMNFECENRPGPYEFRET | – | 219 ± 23 µM | 717 µmol/min/mg | 369 s⁻¹ | 1.75e+06 M⁻¹ s⁻¹ |
